Reference: patent US20040071656A1, “Modulation of heat-shock-protein-based immunotherapies” (priority 2001, published 2004)

Target: T1, human CD40 (Homo sapiens, UniProt P25942)
T1 construct: CD40 full-length cDNA was cloned by PCR; expressed in transfected cells
Assay: P38 kinase assay in HEK293T-CD40 cells
Type: cell-based
Details: for phosphorylated p38 in HEK293T-CD40 cells: 100 nM, 20 min at 37° C., ADP and peptide C
Procedure: P38 Kinase Assay. Twenty-four h prior to P38 kinase assays HEK293T-CD40 and HEK293T-MCAT cells were seeded into a 24-well plate coated with collagen and incubated with 100 nM CD40L (Alexis), HSP70, N70-domain, C70-domain, or DnaK for 20 min at 37° C. DnaK, Hsp70, N70 and C70 were preincubated with either 2 mM ADP and 30 μM peptide C or 40 μM AMPPNP (Sigma). Upon stimulation cells were washed twice with ice-cold PBS, and lysed in SDS-sample buffer. Equal amounts of protein were analyzed by immunoblotting with antibodies directed against phosphorylated P38 (Promega), and with a monoclonal anti-tubulin antibody (J. Wehland, Braunschweig, Germany).
Binding of Hsp70-peptide complex to CD40 results in intracellular signaling and peptide uptake. Binding of CD40 ligand to CD40 induces signal transduction via phosphorylation of p38, a component of the signal cascade between activated CD40 and NF-kappaB, which eventually results in the release of TNF-alpha and subsequent secretion of interferon-gamma (Pullen et al., 1999). Binding of the C-terminal domain of DnaK to CD40 was reported to have a similar effect (Wang et al., 2001, idem). We therefore investigated whether binding of human Hsp70-peptide complex to CD40 also stimulates this signaling pathway. These experiments were carried out in HEK293T cells stably transfected with human CD40 cDNA. After incubation with either Hsp70-peptide complex, recombinant Hsp70 domains, or DnaK, in the presence of ADP or the non-hydrolysable ATP analogue AMPPNP, cells were lysed, and lysates analyzed by immunoblotting with an antibody directed against active (i.e., phosphorylated) p38.
Details for FIG. 6. Binding of Hsp70 complex to CD40-expressing HEK293T cells induces signaling via p38 and causes peptide uptake. […] Thereafter cells were washed, solubilized in SDS-sample buffer, and analyzed by immunoblotting with antibodies directed against phosphorylated (active) p38. […] Thereafter cells were washed, incubated for 15 min at 37° C., and processed for fluorescence microscopy. […]

T1 sequence (P25942 21-277): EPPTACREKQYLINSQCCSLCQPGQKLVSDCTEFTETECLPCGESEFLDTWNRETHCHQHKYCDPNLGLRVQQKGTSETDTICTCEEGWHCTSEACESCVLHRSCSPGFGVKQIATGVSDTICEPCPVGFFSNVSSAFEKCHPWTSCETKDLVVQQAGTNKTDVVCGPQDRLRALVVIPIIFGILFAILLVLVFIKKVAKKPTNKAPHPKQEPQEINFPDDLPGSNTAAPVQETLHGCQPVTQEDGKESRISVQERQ

N70: Recombinant N-terminal ATPase domain of human Hsp70, residues 5-381 (SEQ ID NO: 1)
phosphorylated p38 in HEK293T-CD40 cells: caused an increase in phosphorylated p38 to an extent comparable to that observed with DnaK

Hsp70: Recombinant human heat shock protein 70, expressed and purified as His-tagged protein
phosphorylated p38 in HEK293T-CD40 cells: caused an increase in phosphorylated p38 to an extent comparable to that observed with DnaK | activation of p38 by Hsp70, nucleotide dependence (ADP versus AMPPNP, compared with same molar concentration of CD40 ligand): significant, and depended on the presence of ADP
